Data set [1] deals with T1, LexA fused wild-type UVR8 (UV … LOCUS 8) (Arabidopsis thaliana), Q9FN03.
T1 chain: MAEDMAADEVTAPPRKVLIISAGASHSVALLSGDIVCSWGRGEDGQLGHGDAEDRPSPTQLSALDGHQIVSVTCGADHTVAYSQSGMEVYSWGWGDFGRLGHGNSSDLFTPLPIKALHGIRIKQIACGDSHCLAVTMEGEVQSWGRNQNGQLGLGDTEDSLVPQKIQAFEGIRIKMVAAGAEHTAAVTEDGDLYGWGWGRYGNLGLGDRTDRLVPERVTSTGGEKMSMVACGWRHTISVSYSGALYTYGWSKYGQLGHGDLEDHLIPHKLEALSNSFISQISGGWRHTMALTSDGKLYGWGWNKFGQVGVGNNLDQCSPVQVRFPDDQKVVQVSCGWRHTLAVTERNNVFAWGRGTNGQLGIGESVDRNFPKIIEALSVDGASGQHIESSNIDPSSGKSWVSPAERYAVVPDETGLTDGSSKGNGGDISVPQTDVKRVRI
As to the kind of experiment: SDS-PAGE of unboiled extracts with immunoblot; total protein extracts of yeast EGY48 expressing LexA-UVR8, kept on ice under −UV-B or +UV-B for 20 min, loaded without boiling, anti-LexA immunoblot. Particulars: remark: other sources report otherwise.

Data set [2] deals with the molecule itself. Described as above.
Data set [3] concerns the molecule itself. As to the kind of experiment: SDS-PAGE of unboiled extracts with immunoblot; total protein extracts of 4-day-old transgenic seedlings grown under −UV-B or +UV-B, extracts kept on ice under the same condition for 30 min, loaded without boiling, anti-GFP immunoblot. For orientation: In western blotting, separated proteins are transferred to a membrane and probed.

The target of data set [4] is T2, YFP-UVR8^WT (proUVR8-YFP-UVR8/uvr8-6) (Arabidopsis thaliana), Q9FN03.
T2 chain: T1 chain
The data set is described as above. Particulars: remark: other sources report otherwise.

From PMC3961177, “Photoactivated UVR8-COP1 Module Determines Photomorphogenic UV-B Signaling Output in Arabidopsis” (PLoS Genetics, 2014) come the findings set out here.

Where a chain is given by its changes, count along the chain named. Names may count otherwise.

The stoichiometry N is the number of molecules, sites or subunits per partner or assembly.

B1: LexA fused wild-type UVR8 (UV … LOCUS 8), Q9FN03 1-440 (natural protein)
chain: T1 chain
In turn, B1 came in with a stoichiometry N in data set [1] of 2.

B2: LexA fused UVR8^W285F (natural protein, Arabidopsis thaliana, UniProt Q9FN03 1-440, looked up)
chain: T1 chain with W285F
notes: UV … LOCUS 8 (UVR8), Arabidopsis thaliana; also called mUVR8; source: yeast strain EGY48, LexA fusion; in total protein extract (dimer/monomer assay) and yeast two-hybrid fusion
Turning to B2, the “stoichiometry N” value in data set [2] is 2.

B3: YFP-UVR8^W285F (proUVR8-YFP-UVR8^W285F/uvr8-6) (natural protein, Arabidopsis thaliana, UniProt Q9FN03 1-440, looked up)
chain: T1 chain with W285F
notes: UV … LOCUS 8 (UVR8), Arabidopsis thaliana; The N-terminal place of YFP is read from the construct's name; source: transgenic Arabidopsis (native UVR8 promoter, uvr8-6 background), 4-day-old seedlings, in total protein extract; not shown: YFP, N-terminal, kept
As for B3, the “stoichiometry N” value in data set [3] was 2.

B4: YFP-UVR8^WT (proUVR8-YFP-UVR8/uvr8-6), Q9FN03 1-440 (natural protein)
chain: T1 chain
In turn, B4 registered a stoichiometry N in data set [4] of 2.
